Columns and labels:
[1] = target: Biotinylated human Amyloid beta 1-42 peptide (human); assay: HTRF epitope competition, purified scFv against Abet0042 IgG (competitor) for biotinylated human Amyloid beta 1-42
[2] = target: Biotinylated human Amyloid beta 1-42 peptide (human); assay: SPR (BIAcore T-100), biotinylated peptide on SA chip, scFv 12.5-400 nM, 1:1 Langmuir

Chain of Biotinylated human Amyloid beta 1-42 peptide (human) (peptide, as listed by the source): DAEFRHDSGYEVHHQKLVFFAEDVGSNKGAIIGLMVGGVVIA

| IC50 [1] | Kd [2] | koff [2] | kon [2] | Binder |
| --- | --- | --- | --- | --- |
| 159 nM | – | – | – | Abet0007 scFv (scFv, part only; not given: Linker, tags and domain order, V domains shown, not shown: another chain or arm of the molecule; small tags and cut ends) VH: EVQLLESGGGLVQPGGSLRLSCAASGFTFSVYTMWWVRQAPGKGLEWVSVIGSSGGTTVYADSVKGRFTISRDNSKNTLYLQMNSLRAEDTAVYYCAREGQQLVRPYYYYGMDVWGQGTLVTVSS VL: QSVLTQPPSVSVSPGQTASITCSGHNLEDKFASWYQQKSGQSPVLVIYRDDKRPSGIPERFSASNSGHTATLTISGTQATDEADYYCQAQDSTTRVFGGGTKLTVL |
| 5.5 nM | 33.2 nM | 0.00666 s⁻¹ | 201000 M⁻¹ s⁻¹ | Abet0144 scFv (scFv, part only; not given: Linker, tags and domain order, V domains shown, not shown: another chain or arm of the molecule; small tags and cut ends) VH: EVQLLESGGGLVQPGGSLRLSCAASGFTFSVYTMWWVRQAPGKGLEWVSVIGSSGGTTVYADSVKGRFTISRDNSKNTLYLQMNSLRAEDTAVYYCAREWMDHSRPYYYYGMDVWGQGTLVTVSS VL: QSVLTQPPSVSVSPGQTASITCSGHNLEDKFASWYQQKSGQSPVLVIYRDDKRPSGIPERFSASNSGHTATLTISGTQATDEADYYCQAQDSTTRVFGGGTKLTVL |

From patent US20180105585A1
